# Source: US6939679 (RIKEN, dated 2005)
# T1: Mus 16-3-3 epsilon (mouse, UniProt P62259 1-255)
# T1 construct: VP16 fusion as in the yeast two-hybrid screen; also called 14-3-3 E; 14-3-3 epsilon
# T1 sequence: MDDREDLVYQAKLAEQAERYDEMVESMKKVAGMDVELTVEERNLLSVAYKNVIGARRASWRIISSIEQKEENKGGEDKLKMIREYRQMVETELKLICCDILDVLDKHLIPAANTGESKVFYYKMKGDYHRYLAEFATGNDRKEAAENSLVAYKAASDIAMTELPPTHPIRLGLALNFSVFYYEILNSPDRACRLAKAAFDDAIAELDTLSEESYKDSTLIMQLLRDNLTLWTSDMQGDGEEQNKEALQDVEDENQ
# B1: NADE-lexA fusion protein (other)
# chain: MANVHQENEEMEQPLQNGQEDRPVGGGEGHQPAANNNNNNHNHNHNHHRRGQARRLAPNFRWAIPNRQMNDGLGGDGDDMEMFMEEMREIRRKLRELQLRNCLRILMGELSNHHDHHDEFCLMP
# notes: range 1-124; Bait of the yeast two-hybrid screen; also called pBTM116-NADE; lexA-X fusion protein
# Target: T1, Mus 16-3-3 epsilon
# Experiment: yeast two-hybrid, lexA-NADE bait against VP16 mouse embryo cDNA library; His selection, beta-gal assay and mating test
binder,measurement,value
B1,binding result,binds
